These results are taken from patent US7202329.

This assay deals with yeast two-hybrid activation domain-Tsg101 construct (full-length Tsg101) (human) (UniProt Q99816). Description: cell-based or functional assay.

Bounds are passed on as bounds.

Chain of yeast two-hybrid activation domain-Tsg101 construct (full-length Tsg101) (human) (Q99816 whole entry, the tested form may be a part): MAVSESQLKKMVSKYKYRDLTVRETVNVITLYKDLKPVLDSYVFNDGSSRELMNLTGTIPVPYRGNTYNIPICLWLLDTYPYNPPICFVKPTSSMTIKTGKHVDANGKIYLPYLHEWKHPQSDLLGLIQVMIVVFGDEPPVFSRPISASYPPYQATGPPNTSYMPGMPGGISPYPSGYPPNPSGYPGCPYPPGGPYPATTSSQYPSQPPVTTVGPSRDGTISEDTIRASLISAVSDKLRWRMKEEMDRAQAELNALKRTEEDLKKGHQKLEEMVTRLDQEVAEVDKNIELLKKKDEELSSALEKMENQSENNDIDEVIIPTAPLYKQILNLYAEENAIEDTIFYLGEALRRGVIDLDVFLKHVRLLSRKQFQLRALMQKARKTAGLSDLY

With “yeast two-hybrid DNA binding domain-HIV1 GAGp6 construct, wild type (from UniProt P04386 1-147; P12493 449-500)”, the β-galactosidase activity, two-hybrid liquid culture assay (fold over background) was above 300.
